Assay [1] has as its target ACM1 variant of AC fused to GFP (ACM1-GFP), encoded by plasmid pACM1-Gfp (Bordetella pertussis | not stated) (UniProt P0DKX7). Briefly: two-hybrid.
Assay [2] deals with ACM2 variant of AC fused to GFP (ACM2-GFP), encoded by plasmid pACM2-Gfp (Bordetella pertussis | not stated) (UniProt P0DKX7). Description: two-hybrid.

Several values for one entry are separate records, joined by “and”; a condition that tells them apart may be missing. Identical values can stand only once.

B1: CaM fused to the V9A nanobody at its N-terminus and a tetra-cysteine tag at its C-terminus (CaM-V9A) (VHH)
VHH: DVQLQESGGGSVQAGGSLRLSCAASGDTFSSYSMAWFRQAPGKECELVSNILRDGTTTYAGSVKGRFTISRDDAKNTVYLQMVNLKSEDTARYYCAADSGTQLGYVGAVGLSCLDYVMDYWGKGTQVTVSS
For B1, in assay [1], the cAMP was above 50 nmol/mg and the ß gal (Rel. Units) amounted to 26 Rel. Units. Besides, in assay [2], the cAMP was above 60 nmol/mg and the ß gal (Rel. Units) is 78 Rel. Units.

B2: CaM fused to the V9A nanobody at its N-terminus, with a C-terminal AviTag (CaM-V9A), encoded by plas (VHH)
VHH: B1 VHH
As for B2, the ß gal (Rel. Units) is 4 Rel. Units in assay [1]; 57 Rel. Units and 23 Rel. Units in assay [2].

B3: CaM fused to the V1K nanobody at its N-terminus, with a C-terminal AviTag (CaM-V1K), encoded by plasmid pK1Cam-V1K (VHH)
VHH: QVQLVESGGALVQPGGSLRLSCAASGFPVNRYSMRWYRQAPGKEREWVAGMSSAGDRSSYEDSVKGRFTISRDDARNTVYLQMNSLKPEDTAVYYCNVNVGFEYWGQGTQVTVSS
B3 gave a ß gal (Rel. Units) in assay [2] of 74 Rel. Units.
